{
  "source": "the nanobody polyreactivity screen of Harvey et al. (2022)",
  "data": [
    {"assay": "yeast display, Sf9 membrane polyspecificity reagent, FACS + sequencing; frameworks hold sequencing errors", "summary_of_the_method": "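In a synthetic yeast display library (Saccharomyces cerevisiae BJ5465), nanobody expression was induced with galactose for 36–48 hours. FACS gates were set low and high (top ~1%) using anti-HA fluorescence for expression and streptavidin fluorescence for binding of the Sf9 membrane reagent. Each polyreactivity label is drawn from the gate of origin.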", "values": [
      {"sequence": "QVELQVSGGGLVRAGGSLRLSCAASGNIFDADIMGWYRQAPGKERELVASITGGGSTSYAESAKGRFTISRDNAKNAVYLQMKSLKPEDTAVYYCARDSWWYHHYDYWGQGTQVTVSS", "polyreactivity (PSR sort gate)": "low polyreactivity"},
      {"sequence": "QVELQVSGGGLVRAGGSLRLSCAASGNIFDADIMGWYRQAPGKERELVASITGGGSTSYAESAKGRFTISRDNAKNAVYLQMNSLKPEDTAVYYCARDSWWYHHYDYWGQGTQVTVSS", "polyreactivity (PSR sort gate)": "low polyreactivity"},
      {"sequence": "QVELVASGGGLVQAGGSLRLSCAASGSTFAANAMGWYRQAPGKERELVAAITSGGGSTYYADSVKGRFTISRDNEKITVYLQMNSLKPEDTAVYYCAALQSHGVDYDYWGLGTQVTVSS", "polyreactivity (PSR sort gate)": "low polyreactivity"},
      {"sequence": "QVELVESGGCLVQARGSLRLSCAGSGSIFYRNAMGWYRQAPGKERELVAAISSDGSTNYADSVKGRFTISRDNAKITVDLQMNSLIPEDTAVYYCAGPWTEILDYWGQGTQVTVSS", "polyreactivity (PSR sort gate)": "low polyreactivity"},
      {"sequence": "QVELVESGGGLVQAGGSLRLSCAASGSTFFKYDMGWYRQAPGKERELVAVITWSGGTTFYADSVKGRFTISRDNAKNTVYLQMNSLKPEDTAVYYCAADYYGYRYDYWGQGTQVTVSS", "polyreactivity (PSR sort gate)": "low polyreactivity"},
      {"sequence": "QVHHVESGGGLVQAGGSLRLSCAASGFIIPYYAMGWYRPAPGKERELVAAISWSGSNTYYADSVKGRFTISRDNAKNTVYLQMNSLKPEDTAVYYCAARYSVYYFVQRNGRYGYWGQGTQVTVSS", "polyreactivity (PSR sort gate)": "high polyreactivity"},
      {"sequence": "QVHHVESGGGLVQAGGSLRLSCAASGLILVPNTMGWYRQAPGKERELVAAISYSGGGTYYADSVKGRFTISRDNAKNNVYLQMNSLKPEDTAVYYCAAYVKRESAPYGYWGQGTQVTVSS", "polyreactivity (PSR sort gate)": "low polyreactivity"},
      {"sequence": "QVHLEESGGGLVQAGGSLRLSSAASGFTFRSNAMGWYRQAPGKERELVAAITSRGGSTYYADSVKGRFTISRDYAINTVYLQMNSLKPEDTAVYYGAADGRSRKFDYWGQGTQVTVSS", "polyreactivity (PSR sort gate)": "high polyreactivity"},
      {"sequence": "QVHLGETGGGLVQAGGSLRLSCAASGSIFSSYAMGWYRQAPGKETELVATITRGGRTSYADSVKGRFTISRDNAKNTVYLQMNSLKPEDTAVDYCAADLYDNVGEFNYWGEGTQVTVSS", "polyreactivity (PSR sort gate)": "low polyreactivity"},
      {"sequence": "QVHLLESWGGLFHAGGSPRLSCAASGRTFGRYAMGWYRQSPATERELVAAITFRGGHSYYADSVKGRFTISRDNAKNTVYFQMNSLKPEDTAVYYCAKRGGYWHKFDYWGQGTQVTVSS", "polyreactivity (PSR sort gate)": "high polyreactivity"},
      {"sequence": "QVHLQECGDGLVQALGSQRLSCAARCYISGYYYMGWYRQAPGKERELVAGIDAFGSSTNYADCVKGRFTISRYNAKNTVYLQMKSLKPEDTALYYCAARPDGDRLFSYWGQGTQVTVFS", "polyreactivity (PSR sort gate)": "low polyreactivity"},
      {"sequence": "QVHLQESGGGLEQAGGSPRLSCAASDNIFPDSVMCWYRQAPGKERELVATIGFGATTNYADSVKGRFTISRDNAKKTVFLQMNSLKPEDTAVYYCAADTLNYEYFCYWGQGTQVTVRS", "polyreactivity (PSR sort gate)": "low polyreactivity"},
      {"sequence": "QVHLVDSAGGLVQAGGSLRLSCSASGSTFAVYAMGWYRQAPGKERELVAAISSSGDRTYYADSVKGRFTFSRDNAKNTVYLQMNILKPEDTAVYYCAVAIGYVYKTYYYWGQGTQVTVSS", "polyreactivity (PSR sort gate)": "high polyreactivity"},
      {"sequence": "QVHLVDSGGCLVQAGGSLRLSCAASGRTFSAYAMGWYRQAPGKEREVVAAISRSGGSTYYADSVKGRFTISRDNAKNTVYLPMNSLTPEDTAVYDCAVRWPSARIPVKLEDWGQGTQVTVSS", "polyreactivity (PSR sort gate)": "high polyreactivity"},
      {"sequence": "QVHLVDSGGGLVQAGGILRLSCAASGRIFVNTMGCYRQAPGKEMELVAAITRSGVSTYYADSVKGRFTISRDNAKNTVYLQMNSLKPEDTAVYYCAAREWSGPKIYPPYRYNSWGQGTQVTVSS", "polyreactivity (PSR sort gate)": "high polyreactivity"},
      {"sequence": "QVHLVDSGGGLVQAGGRLRLSCPASVSTFYYYVKGWYRQPPGKERELVAAISSGCHTNYADSVKGRFTISRDNAKNTVYLQMNSLIPEDSAVYYCAAKPRRGTLLRYGYWGQGTQVTVSS", "polyreactivity (PSR sort gate)": "high polyreactivity"},
      {"sequence": "QVHLVDSGGGLVQAGGSLRLRCAASGSSFNPNAMGLYRQDPGKERELVAAITSGGSTYYADSVKGRFTISRDNAKNTVYLQINSLKQEDTAVYYCNKALTSKDYPVRTVERDYWGQGTKVTVSS", "polyreactivity (PSR sort gate)": "low polyreactivity"},
      {"sequence": "QVHLVDSGGGLVQAGGSLRLSCAASGFNFTYYGMGSYRQAPGKERELVAAISESCGSTYYADSVKGRFTISRDNAKNTVYLQMTSLKPEDTAVYYCAADVTKRASRDYYWGQGTQVTVSS", "polyreactivity (PSR sort gate)": "high polyreactivity"},
      {"sequence": "QVHLVDSGGGLVQAGGSLRLSCAASGRIIDLYAMGCYRQAPGKEWELVAVIDIRDTSTYYADSVKGRFTISRDNAKNTVYLEMNSLKPEDTSVYYCAADYLVYDWYTYGYWGQGTQVTVSS", "polyreactivity (PSR sort gate)": "high polyreactivity"},
      {"sequence": "QVHLVDSGGGLVQEGGSLRLSCAASGFISPKYRMGWYRQAPRKERELVAANTTSDGSTSYADSVKGRFRISRDNAKTTVYLQMISLKPEDSAVYYCAAGYESWRSWVRRYLRMDYWGQGTQVTLSS", "polyreactivity (PSR sort gate)": "high polyreactivity"},
      {"sequence": "QVHLVDSGGGLVQEGGSLRLSCGASGSTFQSYAMGWYRQSPGKERELVAVIDSGGRTYYADSVKGRFTISRDNAKNTVYLQINSLKPEDTAVYYCAARGPVGNGWRYRPWHDYWGQGTQVTVSS", "polyreactivity (PSR sort gate)": "high polyreactivity"},
      {"sequence": "QVHLVESAGGLVQAGGSLRLSCAASGITFSDNAMGWYRPAPGKETEVVAAISWGGGSTYYADSVKGRFTISRDNAKNTVYLQMNSLKPEDTAFYYCNAGGYLISDVDRVGYWGQGTQVTVSS", "polyreactivity (PSR sort gate)": "low polyreactivity"},
      {"sequence": "QVHLVESAGGLVQAGGSLRLSCAASGRIFTPYAMGWYRQAPGKERELVAVIRDGSTYYADSVKGRFTISRDNAKNTVYLQMNSLKPEDSAVYYCRYDIWVWWSGAYDYWGQGTQVTVSS", "polyreactivity (PSR sort gate)": "low polyreactivity"},
      {"sequence": "QVHLVESAGGLVQAGGSLRLSCDASGFIFPRYDMGSYRQAPGKEREMVAAISRRGGSTNYADSVKGRFTISRDNAKNTVYLQMNSLKPEATAVYYCNADTTGYSSYGYDYWGQGSQVTVSS", "polyreactivity (PSR sort gate)": "high polyreactivity"},
      {"sequence": "QVHLVESGAGLVKAGGSLRLSCAASGRTFRYNAMGWYRQQPGNERELVATITTRGGSTYYADSVKGRFTISRDNAKNTVYLQMNSLKPEDTAVYYCATKWPVYPTGYDYWGQGTQVTVSS", "polyreactivity (PSR sort gate)": "low polyreactivity"},
      {"sequence": "QVHLVESGAGLVQAGGILRLSCAASGRIFAHYALGWYRQAPGKERELVAAISRGGSTKYADSVKGRFTISRDHAKNTVYFQMNSLKPEDTAVYYCARQLWGSPYGAYYAGDYWGQGTQVTVSS", "polyreactivity (PSR sort gate)": "low polyreactivity"},
      {"sequence": "QVHLVESGGCLVQAGGSLRLSCSASGSIFGWYAMGWYRQAPGKEREFVAAISYSGGSTYYADSVKGRFTNSRDIAKITVYLQINSLKPEDTAVYYCNARPYWYFPYRVPEGYDYWGQGTQVTVSS", "polyreactivity (PSR sort gate)": "high polyreactivity"},
      {"sequence": "QVHLVESGGGIVQAGGSLRLSCAASGIIFHWYAMGWYRQAPGKERELVAAITQSGGSTSYADSVKGRFTISRDNAKNTVYLQMNSLKPEDTAVYNCSKDYAYTLWENYYAFNYWGQGTQVTVSS", "polyreactivity (PSR sort gate)": "low polyreactivity"},
      {"sequence": "QVHLVESGGGKVQAGGRLRLSCAASGSTFFRYAMGWYRQAPGKERELVAAISWSGGTTYYADSVKGRFPISRDIAKNTVYLQMNSLKPEDTAVYYCNAVRQGHILDYWGQGTQVTVSS", "polyreactivity (PSR sort gate)": "low polyreactivity"},
      {"sequence": "QVHLVESGGGLDQAGGSLRLICAASGSIFDYYAMGWYRQAPGKERELVAAIDNPDSTNYADSVKGRFTLSRDNAKNTVYLQMNSLKPEDTAVYYCAASSRTVWYPGVGYYYWGQGTQVTVSS", "polyreactivity (PSR sort gate)": "low polyreactivity"},
      {"sequence": "QVHLVESGGGLDQAGGSLRLSCAASASIFELYAMGWYRQAPGKERELVAVISTGGSTYYADSVKGRFTISRDNAKNTVYLQMNSLKPEDTAVYYCAKGGYVPKLEYWGQGTQVTVSS", "polyreactivity (PSR sort gate)": "high polyreactivity"},
      {"sequence": "QVHLVESGGGLDQAGGSLRLSSAASGTTYRYAMGCYRQAPGKAMELVATISSRGGTTSYADSVKGRFTISRDNAKNTVYLQMNSLKPEDTAVYSCAAGQFPKYFSDDADMDYWGQGPQVTVSS", "polyreactivity (PSR sort gate)": "low polyreactivity"},
      {"sequence": "QVHLVESGGGLFQAGGSLRLSCAPSGSITGYYAMGWYRQAPGKERDLVASIRNTGARTYYADSVKGRFTISRDNAKKTVYIQKNSLKAEDTAVYYCAADVKRDRVRGGDDWGQGTQVTVSS", "polyreactivity (PSR sort gate)": "low polyreactivity"},
      {"sequence": "QVHLVESGGGLLQAGGSLRLSFAASGTFYYYAMGWNRQAPGKERELVATISWDSASTYYADSVKGRFTISRDNAKNTVYLQMNSLKPEDTGVYYCAAGGSSSWAFNYWGQGTQVTVSS", "polyreactivity (PSR sort gate)": "low polyreactivity"},
      {"sequence": "QVHLVESGGGLVKAGGSLRLSCAASGLTFYVYTMGWYRQAPGKERELVAVISSGDSTYYADSVKGRFTISRDNAKNTVYLQMNSLKPEDTAVYYCAAGTHYLIVRYGLYDYWGQGTQVYVSS", "polyreactivity (PSR sort gate)": "low polyreactivity"},
      {"sequence": "QVHLVESGGGLVKAGGSLRLSCAASGSIFTWYAMGWYRQEPGKERELVAAITWRGGSTYYADSVKGRFTISRDNAKNTVYLQMNSLKPEDTAVYYCAAAGRSGKSLLQYGYWGQGTQVTVSS", "polyreactivity (PSR sort gate)": "high polyreactivity"},
      {"sequence": "QVHLVESGGGLVKAGGSLRLSCAAYGRIFSYNDMGWYRQSPGKDRELVAAISSSGGRTYYADSVKGSFTISRDNAKNTVYLQMNSMKPEDTALYYCNVLGYSYWGQGTQVTVSS", "polyreactivity (PSR sort gate)": "high polyreactivity"},
      {"sequence": "QVHLVESGGGLVQAAGSLRLSCAASGRTFNPNAIGWYRQAPGKERELVAVINVGGRTNYADSVKGRFTISRDNAKNTVYLQMNSLKPEDSAVYYCAAISSRNFDYWGQGTQVTVSS", "polyreactivity (PSR sort gate)": "high polyreactivity"},
      {"sequence": "QVHLVESGGGLVQAGASLRLSCAASGSIFVGYAMGWYRQAPGKERELVASISSGDDTYADSVKGRFTISRDNAKNTVYLQMNSLKPEDTAVYYCAKDYISVDWAYDYWGQGTQVTVSS", "polyreactivity (PSR sort gate)": "low polyreactivity"},
      {"sequence": "QVHLVESGGGLVQAGCSLRLSCAASGFTFYDYAMGWYRQAPGKERELVAGISRGDSTYYADSVKGRFTISRDNAKNTVYLQKNSLKPEDTSVYYCAADARSYDALDYSDLLYDYWGHGTQVTVSS", "polyreactivity (PSR sort gate)": "low polyreactivity"},
      {"sequence": "QVHLVESGGGLVQAGDSLRLSCASSGIIFYDYAMGWYRPAPGKERELVAAITSSGGSTYYADSVKGRFTISRDNAKNTVYLQMNSLIPEDTAVYYCAAATRGSGRRYDYLGQGTQVTVSS", "polyreactivity (PSR sort gate)": "high polyreactivity"},
      {"sequence": "QVHLVESGGGLVQAGGCLRLSCAASGSIFSVHAMGWYRQAPVKERELVAAISGDGDSTYYADSVKGRFTISRDNAKNTVYLQMNSLKPEDTAVYYCAVEPNVYFSVFVLFPSDYWGQGSQVTVSS", "polyreactivity (PSR sort gate)": "low polyreactivity"},
      {"sequence": "QVHLVESGGGLVQAGGGLRLSSAASGFIFSPNAMGWYRQAPGKEREYVAAISYSGTSTSYADSVKGRFTISRDNAKNTVYLQMNSLKPEDTAVYYCAAGRSNSYSPRRRVTYGYNYWGQGTQVTVSS", "polyreactivity (PSR sort gate)": "high polyreactivity"}
    ]}
  ]
}
